The RNAGym collection of RNA variant scans (doi:10.1073/pnas.2313332121)
Variants at the floor of the assay were thinned out.

B1: TPR 5TU (parent)
chain: GGAUCUUCUCGAUCUAACAAAAAAGACAAAUCUGCCACAAAGCUUGAGAGCAUCUUCGGAUGCAGAGGCGGCAGCCUUCGGUGGCGCGAUAGCGCCAACGUUCUCAACUAUGACACGCAAAACGCGUGCUCCGUUGAAUGGAGUUUAUCAUG

Variants of: B1
Test: polymerase ribozyme fitness, log enrichment relative to wild type (log ratio); higher = more active; in vitro selection for triplet polymerase activity
Method in brief: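 Frozen incubation at −7 °C formed the core of a single, triplicate in vitro selection round applied to PCR-built, transcribed mutant libraries of each subunit of a heterodimeric triplet polymerase ribozyme. Extended constructs were gel-excised, captured with streptavidin beads and amplified by RT-PCR, and input and output libraries were Illumina-sequenced with a filter of ≥10 input reads and ≥1 read per output. Fitness is the logarithm of genotype enrichment relative to wild-type enrichment, with inverse-variance-weighted replicate averaging, and the logarithm is base 2.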

Variant | polymerase ribozyme fitness (log ratio)
G25C C57A C87U A97G | -3.23
C57G C96G U145A | -0.71
C8U A16U A49C A73C C85U C108G | ≤ -4.2
C5A U77A C87A | ≤ -4.2
U82A G92C | 0.508
C51U G86U | -1.45
U82G G84U C99U G128C | ≤ -4.2
G74U C85G | ≤ -4.2
A66U C76G C85A C95U U102G A113U C116A A142C | ≤ -4.2
C27U U33G C95U | -3.46
U15G G94C A115C C116G | -3.85
C96G A119U | -2.52
A3G U4A C54U U102G C125G | -3.99
A60G G83A G86A A97C C125G C131G G136A G152U | ≤ -4.2
G84U U144A | -3.22
C35U U44A C54A C87U A110U | ≤ -4.2
A29U C99A | -4.17
C14U C57G C85U G152A | -3.89
A89C C95U | -1.49
G25U G86A C105U | -3.5
A40U C51U C93U | -1.15

Variant | polymerase ribozyme fitness (log ratio)
U15G A26U C38G G42A U44A C95G C99U | ≤ -4.2
C5U G84A | 0.439
C27U C57A C87A A115U | ≤ -4.2
C96A | -0.52
U7A A20C C93G C116G U135G | ≤ -4.2
G34A G50C G92U | ≤ -4.2
C10A C85U G133C U134A U146G | ≤ -4.2
U31A C54U G83U G94U G124A A142C | -4.09
A37U C38U C76G C93U C96A C118U G143U | ≤ -4.2
C99A C114U U135G | -3.68
A19C C27U A29C A52C G86C A137G G143U | ≤ -4.2
G80A G128U | -3.18
U61G G67U U90A A120G | ≤ -4.2
U53A A120G | -1.88
A17U G81A G84A | -0.321
A12C U101G A137G | -0.888
A40C A119C | 0.851
A20U U56A | -1.87
A26U C32G U45C G50C U53G G84A C99U A137G | ≤ -4.2
A17U C18U A20G C93U A115G | -4.19
A39G A52C C54G C85U C125U G126U A147C | ≤ -4.2

Variant | polymerase ribozyme fitness (log ratio)
A28U A30C C79A | ≤ -4.2
G25C A66G A106C | ≤ -4.2
C14G G133U | ≤ -4.2
U55G A98U U144G | 0.317
G11A A26C C27G C35U C87A G124A | -4.15
U31A C85G C96G A142C | ≤ -4.2
U6G C35U G58C C96U A113C U135C A147U | ≤ -4.2
G11A A16U A24U C85A A142C | ≤ -4.2
C14G A41U G62C C95U C96A G112U A142U U146A A150G | ≤ -4.2
A17U C85G | -2.57
U15G A49C G65C A120C A142C | ≤ -4.2
A22U C54U U55A | 0.0331
G84A G94A A98C G124A | -0.811
A52U G74A C87A A119U U148G | ≤ -4.2
A12C C57A G83U G136C | -3.78
C93A A107U G126C A150G | ≤ -4.2
U6A C54U G58C C85A U134C | -1.4
G50A A91U C99U C103G C108U A137C G141C | ≤ -4.2
A40U U55G C95U C105G C116G | -3.94
U53A U55A C79U A98U | ≤ -4.2
C8A A12G | -3.98

Variant | polymerase ribozyme fitness (log ratio)
G80C C103G G124A A147G | ≤ -4.2
A19U G81C C85U U145A | -0.303
C93U A97C | -0.557
U45G U53A U56C G84A C125U A137G G140U C149A | ≤ -4.2
C32A U82C | ≤ -4.2
G84U G86A C93U C123U | -1.15
G48U | 0.247
U31C A47G A49U G94A A119G G136C | -4.04
C38U C57A G143C | -2.41
U55A C63G A121U | -0.282
C87A A150G | ≤ -4.2
G67U G83U U101G | ≤ -4.2
U55G C93G | -4.19
C85U G86C G88A U90G A121U G128A | ≤ -4.2
G59C G86A | -2.61
C54U C99G U101G A142U | -3.57
A30U A52U U78A | ≤ -4.2
C10A C85G C125A | ≤ -4.2
U4G A39U A40U A91U C95G | ≤ -4.2
A39G G88C A91U G136U | ≤ -4.2
